Results as given in patent US20220162323A1 (Regeneron, published 2022).

T1: hFGFR2b.mmh (human)
T1 construct: also called Human FGFR2b with C-terminal myc-myc-hexahistidine tag
T1 chain: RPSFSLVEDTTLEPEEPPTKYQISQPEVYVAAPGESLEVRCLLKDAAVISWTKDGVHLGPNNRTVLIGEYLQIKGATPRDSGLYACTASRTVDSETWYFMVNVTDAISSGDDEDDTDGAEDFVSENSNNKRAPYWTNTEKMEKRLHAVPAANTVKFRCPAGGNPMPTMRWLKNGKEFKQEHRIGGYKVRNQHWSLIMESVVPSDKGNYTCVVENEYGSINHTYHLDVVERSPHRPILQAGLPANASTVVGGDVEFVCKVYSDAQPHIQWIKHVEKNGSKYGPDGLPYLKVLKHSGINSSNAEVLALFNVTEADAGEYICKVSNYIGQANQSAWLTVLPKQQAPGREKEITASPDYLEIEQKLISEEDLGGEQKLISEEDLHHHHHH

T2: FGFR2b on SNU-16 and MFM-223 cells (human, UniProt P21802 22-821)
T2 chain: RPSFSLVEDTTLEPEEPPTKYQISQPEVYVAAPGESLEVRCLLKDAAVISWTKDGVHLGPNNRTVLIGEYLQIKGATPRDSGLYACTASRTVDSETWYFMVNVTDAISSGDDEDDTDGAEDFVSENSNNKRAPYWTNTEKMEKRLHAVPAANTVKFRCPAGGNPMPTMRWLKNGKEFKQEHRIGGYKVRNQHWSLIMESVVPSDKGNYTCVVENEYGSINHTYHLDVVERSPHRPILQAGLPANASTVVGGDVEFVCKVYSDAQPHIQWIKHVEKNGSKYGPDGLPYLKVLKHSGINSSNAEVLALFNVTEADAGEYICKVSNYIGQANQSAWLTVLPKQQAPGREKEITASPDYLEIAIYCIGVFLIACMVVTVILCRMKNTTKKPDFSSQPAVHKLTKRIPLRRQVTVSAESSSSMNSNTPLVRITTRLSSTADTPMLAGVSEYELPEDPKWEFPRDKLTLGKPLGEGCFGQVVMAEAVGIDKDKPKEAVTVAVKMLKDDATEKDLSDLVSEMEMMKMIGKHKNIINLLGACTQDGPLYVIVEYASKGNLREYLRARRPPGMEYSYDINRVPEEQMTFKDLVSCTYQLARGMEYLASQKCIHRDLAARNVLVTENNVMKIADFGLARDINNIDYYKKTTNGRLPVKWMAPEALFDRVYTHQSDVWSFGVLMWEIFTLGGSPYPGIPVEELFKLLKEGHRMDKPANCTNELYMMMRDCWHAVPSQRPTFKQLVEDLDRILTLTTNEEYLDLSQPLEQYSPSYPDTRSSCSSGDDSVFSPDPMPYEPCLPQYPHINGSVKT

B1: Comp1 (antibody, INN chains, looked up, V domains shown)
VH: QVQLVQSGAEVKKPGSSVKVSCKASGYIFTTYNVHWVRQAPGQGLEWIGSIYPDNGDTSYNQNFKGRATITADKSTSTAYMELSSLRSEDTAVYYCARGDFAYWGQGTLVTVSS
VL: DIQMTQSPSSLSASVGDRVTITCKASQGVSNDVAWYQQKPGKAPKLLIYSASYRYTGVPSRFSGSGSGTDFTFTISSLQPEDIATYYCQQHSTTPYTFGQGTKLEIK
B2: mAb1-tubulysin 1ALP (antibody, human IgG4 S228P, kappa, V domains shown)
VH: QVQLVESGGGVVQPGRSLRLSCAASGFTFSSYGMHWVRQAPGKGLEWVAVIWYDGSNKYYADSVKGRFTISRDNSKNTLYLQMNSLRAEDTAVYYCAREESSASGVDYWGQGTLVTVSS
VL: EIVLTQSPGTLSLSPGERATLSCRASQSVSTRYLAWYQQKRGQAPRLLIYGASSRATGIPDRFSGSGSGTDFTLTISRLEPEDFAVYYCQEYGSSSITFGQGTRLEIKR
modifications: deglycosylated; Q295 carries azido-PEG3-amine clicked to Tubulysin 1A-LP; DAR 2.1 per antibody
notes: also called Anti FGFR2 mAb1-PEG3-N3-Tubulysin 1A-LP
B3: mAb1 (antibody, human IgG4 S228P, kappa, V domains shown)
VH: B2 VH
VL: B2 VL
notes: also called anti-FGFR2 antibody mAb1; mAb1 (Unconjugated)
B4: mAb1-maytansinoid 1ALP (antibody, V domains shown)
VH: B2 VH
VL: B2 VL
modifications: maytansinoid 1ALP (mc-VC-PAB-NMe-C3-May) linker-payload conjugated; residues not stated in Example 5; DAR 2.5 per antibody
notes: it is written on the heavy chain only for want of a better place
B5: mAb2-tubulysin 1ALP (antibody, V domains shown)
VH: QVQLVESGGGVVQPGKSLRLSCAASGFTFSNYGMHWVRQTPVKGLEWVTLIWYDGSNKYYTDSVKGRFTISRDNSKNTLYLQMNSLRSEDTAVYYCAREGNWNYGHAFDIWGQGTMVTVSS
VL: DIQMTQSPSTLSASVGDRVTITCRASQNIGNWLAWYQQKPGKAPNLLIYKASTLESGVPSRFSGSGSGTEFTLTISSLQPDDFATYNCQQYNSYSPTFGQGTKLEIKR
modifications: deglycosylated; Q295 carries azido-PEG3-amine clicked to Tubulysin 1A-LP; DAR 2.1 per antibody
notes: also called Anti FGFR2 mAb2-PEG3-N3-Tubulysin 1A-LP
B6: mAb2-maytansinoid 1ALP (antibody, V domains shown)
VH: B5 VH
VL: B5 VL
modifications: maytansinoid 1ALP (mc-VC-PAB-NMe-C3-May) linker-payload conjugated; residues not stated in Example 5; DAR 1.9 per antibody
notes: it is written on the heavy chain only for want of a better place; also called FGFR2 maytansinoid ADC
B7: mAb2 (antibody, V domains shown)
VH: B5 VH
VL: B5 VL
notes: also called anti-FGFR2 antibody mAb2; mAb2 (Unconjugated)

Experiments:
hFGFR2c.mmh = target: T3, hFGFR2c.mmh (human, UniProt P21802 22-377); assay: SPR (Biacore), antibody captured by anti-human Fc, hFGFR2c-MMH as analyte, 25 C
T3 construct: also called Human FGFR2c with C-terminal myc-myc-hexahistidine tag
Protocol: The equilibrium dissociation constants (KD values) for hFGFR2b.mmh binding to anti-FGFR2 antibodies conjugated with Tubulysin (“tubulysin 1ALP”), Auristatin (“auristatin LP1”), or mc-VC-PAB-NMe-C3-May (“maytansinoid 1ALP”) were determined using a real-time surface plasmon resonance biosensor assay on a Biacore 2000 or a Biacore 4000 instrument. The Biacore sensor surface was derivatized by amine coupling with a monoclonal mouse anti-human Fc antibody (REGN2567 or Jackson Cat. No #109-005-098) to capture anti-FGFR2 ADC and parent unmodified antibodies expressed with human constant regions. Biacore binding studies were performed in HBS-EP running buffer (0.01M HEPES pH 7.4, 0.15M NaCl, 3 mM EDTA, 0.05% v/v Surfactant P20). […] Association of hFGFR2b-MMH or hFGFR2c-MMH to each of the captured ADCs and monoclonal antibodies was monitored for 4 minutes. Subsequently, dissociation was monitored for 10 minutes in HBS-EP running buffer. […] Kinetic association (kₐ) and dissociation (kd) rate constants were determined by fitting the real-time sensorgrams to a 1:1 binding model using Scrubber 2.0c curve fitting software. […] Binding dissociation equilibrium constants (KD) and dissociative half-lives (t½) were calculated from the kinetic rate constants as: […]

hFGFR2b.mmh [1] = target: T1, hFGFR2b.mmh; assay: SPR (Biacore), antibody captured by anti-human Fc, hFGFR2b-MMH as analyte, 25 C
Protocol: (§1) The equilibrium dissociation constants (KD values) for hFGFR2b.mmh binding to anti-FGFR2 antibodies conjugated with Tubulysin (“tubulysin 1ALP”), Auristatin (“auristatin LP1”), or mc-VC-PAB-NMe-C3-May (“maytansinoid 1ALP”) were determined using a real-time surface plasmon resonance biosensor assay on a Biacore 2000 or a Biacore 4000 instrument. The Biacore sensor surface was derivatized by amine coupling with a monoclonal mouse anti-human Fc antibody (REGN2567 or Jackson Cat. No #109-005-098) to capture anti-FGFR2 ADC and parent unmodified antibodies expressed with human constant regions. Biacore binding studies were performed in HBS-EP running buffer (0.01M HEPES pH 7.4, 0.15M NaCl, 3 mM EDTA, 0.05% v/v Surfactant P20). Human FGFR2b and Human FGFR2c were prepared in-house expressing a C-terminal myc-myc-hexahistidine tag (hFGFR2b-MMH—SEQ ID NO: 57; hFGFR2c-MMH—SEQ ID NO: 58). […] Association of hFGFR2b-MMH or hFGFR2c-MMH to each of the captured ADCs and monoclonal antibodies was monitored for 4 minutes. Subsequently, dissociation was monitored for 10 minutes in HBS-EP running buffer. Anti-human Fc surface was regenerated by a brief injection of 20 mM H₃PO₄. All binding kinetic experiments were performed at 25° C. Kinetic association (kₐ) and dissociation (kd) rate constants were determined by fitting the real-time sensorgrams to a 1:1 binding model using Scrubber 2.0c curve fitting software. All sensorgrams were double referenced by subtracting buffer injection sensorgram signal from the corresponding analyte sensorgram, thereby removing artifacts caused by dissociation of the antibody from the capture surface. Binding dissociation equilibrium constants (KD) and dissociative half-lives (t½) were calculated from the kinetic rate constants as: […]

[2] = target: T2, FGFR2b on SNU-16 and MFM-223 cells; assay: cell-based or functional assay
hFGFR2b.mmh [3] = target: T1, hFGFR2b.mmh; assay: SPR (Biacore), ADC captured by anti-human Fc, hFGFR2b-MMH as analyte, 25 C
Protocol: as §1

[4] = target: T2, FGFR2b on SNU-16 and MFM-223 cells; assay: cell-based or functional assay

| Binder | Antigen Bound (RU) (hFGFR2c.mmh) | Antigen Bound (RU) (hFGFR2b.mmh [1]) | Kd (hFGFR2b.mmh [1]) [pM] | koff (hFGFR2b.mmh [1]) [s⁻¹] | kon (hFGFR2b.mmh [1]) [M⁻¹ s⁻¹] | t1/2 (hFGFR2b.mmh [1]) [min] | IC50 (M), CellTiter-Glo cytotoxicity, MFM-223 cells, 6 days [2] [M] | IC50 (M), CellTiter-Glo cytotoxicity, SNU-16 cells, 6 days [2] [M] | Max % Kill, MFM-223 cells [2] [%] | Max % Kill, SNU-16 cells [2] [%] | Antigen Bound (RU) (hFGFR2b.mmh [3]) | t1/2 (hFGFR2b.mmh [3]) [min] | IC50 (M), cytotoxicity, SNU-16 monoculture, 5 days (bystander assay) [4] [M] | Max % Kill, SNU-16 monoculture (bystander assay) [4] [%] | binding result (hFGFR2c.mmh) | Kd (hFGFR2b.mmh [3]) [pM] |
| --- | --- | --- | --- | --- | --- | --- | --- | --- | --- | --- | --- | --- | --- | --- | --- | --- |
| B1 | 0.6 | 68.3 | 60800 | 0.00471 | 77400 | 2.5 |  |  |  |  |  |  |  |  |  |  |
| B2 |  |  |  |  |  |  | 1.25e-10 | 4.34e-11 | 91.1 | 95.4 | 36.4 | 7.4 | 6.69e-11 | 97.1 |  |  |
| B3 |  |  | 25000 | 0.00104 | 41700 | 11.1 |  |  |  |  |  |  |  |  | no binding (tested: 30 nM (highest concentration injected)) |  |
| B4 |  |  |  |  |  |  | 2.14e-10 | 2.68e-10 | 85.5 | 93.1 | 42.1 | 11.1 |  |  |  | 41800 |
| B5 |  |  |  |  |  |  | 6.36e-11 | 3.7e-11 | 90 | 95.3 | 32.7 | 9.8 | 2.73e-11 | 97.2 |  |  |
| B6 |  |  |  |  |  |  | 1.72e-10 | 2.06e-10 | 91.1 | 95 | 31.3 | 13.1 | 6.45e-10 | 94.8 |  | 12800 |
| B7 |  |  | 8920 | 0.000447 | 50100 | 25.8 |  |  |  |  |  |  |  |  |  |  |
